Source: US7098025B1, “Human peroxisome proliferator activated receptor gamma (pparγ) gene regulatory sequences and uses therefor” (Ligand Pharmaceuticals Incorporated, priority 1997, dated 2006)

T1: RXRalpha (Mus musculus, UniProt P28700 P28700:1-467)
T1 sequence: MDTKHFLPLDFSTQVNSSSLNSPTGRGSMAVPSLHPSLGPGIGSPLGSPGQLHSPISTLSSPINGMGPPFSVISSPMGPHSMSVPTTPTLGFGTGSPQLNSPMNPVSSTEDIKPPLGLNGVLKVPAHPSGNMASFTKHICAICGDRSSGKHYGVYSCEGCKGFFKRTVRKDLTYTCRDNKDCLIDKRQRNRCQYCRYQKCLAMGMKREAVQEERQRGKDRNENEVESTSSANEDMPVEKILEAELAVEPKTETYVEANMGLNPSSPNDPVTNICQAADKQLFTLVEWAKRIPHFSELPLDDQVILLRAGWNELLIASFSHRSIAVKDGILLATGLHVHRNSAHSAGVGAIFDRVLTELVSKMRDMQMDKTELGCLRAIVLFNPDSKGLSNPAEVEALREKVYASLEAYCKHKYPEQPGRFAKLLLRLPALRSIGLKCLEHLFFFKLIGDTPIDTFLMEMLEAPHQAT

B1: MCSF: macrophage colony stimulating factor (protein, UniProt P09603 33-554, looked up)
Macrophage colony-stimulating …: EEVSEYCSHMIGSGHLQSLQRLIDSQMETSCQITFEFVDQEQLKDPVCYLKKAFLLVQDIMEDTMRFRDNTPNAIAIVQLQELSLRLKSCFTKDYEEHDKACVRTFYETPLQLLEKVKNVFNETKNLLDKDWNIFSKNCNNSFAECSSQDVVTKPDCNCLYPKAIPSSDPASVSPHQPLAPSMAPVAGLTWEDSEGTEGSSLLPGEQPLHTVDPGSAKQRPPRSTCQSFEPPETPVVKDSTIGGSPQPRPSVGAFNPGMEDILDSAMGTNWVPEEASGEASEIPVPQGTELSPSRPGGGSMQTEPARPSNFLSASSPLPASAKGQQPADVTGTALPRVGPVRPTGQDWNHTPQKTDHPSALLRDPPEPGSPRISSLRPQGLSNPSTLSAQPQLSRSHSSGSVLPLGELEGRRSTRDRRSPAEPEGGPASEGAARPLPRFNSVPLTDTGHERQSEGSFSPQLQESVFHLLVPSVILVLLAVGGLLFYRWRRRSHQEPQRADSPLEQPEGSPLTQDDRQVELPV
B2: apoA-II J site PPRE (dsDNA)
DNA 1: GATCCTTCAACCTTTACCCTGGTAGA
DNA 2: TCTACCAGGGTAAAGGTTGAAGGATC

Assays:
PPARγ expression = PPARγ expression in primary macrophages and monocytic cell lines; type: cell-based
From the text: PPARγ is expressed in a subset of macrophages and negatively regulates the expression of several pro-inflammatory genes in response to its ligands. We recently discovered the presence of PPARγ in human macrophages foam cells of human atherosclerotic lesions. In these cells, PPARγ is present in a pattern correlated with that of oxidation-specific epitopes. Oxidized low-density lipoprotein (LDL) and macrophage colony stimulating factor (MCSF) are known to be present in atherosclerotic lesions. […] Furthermore, phorbol esters induced PPARγ expression.

PPARgamma2 = PPARgamma2 (Homo sapiens, UniProt P37231 P37231:1-505); experiment: EMSA; homodimer, no RXR; conditions: tags: rabbit reticulocyte lysate (Promega); label: 32P (T4-PNK)
Chain of PPARgamma2 (P37231 whole entry, one chain of several): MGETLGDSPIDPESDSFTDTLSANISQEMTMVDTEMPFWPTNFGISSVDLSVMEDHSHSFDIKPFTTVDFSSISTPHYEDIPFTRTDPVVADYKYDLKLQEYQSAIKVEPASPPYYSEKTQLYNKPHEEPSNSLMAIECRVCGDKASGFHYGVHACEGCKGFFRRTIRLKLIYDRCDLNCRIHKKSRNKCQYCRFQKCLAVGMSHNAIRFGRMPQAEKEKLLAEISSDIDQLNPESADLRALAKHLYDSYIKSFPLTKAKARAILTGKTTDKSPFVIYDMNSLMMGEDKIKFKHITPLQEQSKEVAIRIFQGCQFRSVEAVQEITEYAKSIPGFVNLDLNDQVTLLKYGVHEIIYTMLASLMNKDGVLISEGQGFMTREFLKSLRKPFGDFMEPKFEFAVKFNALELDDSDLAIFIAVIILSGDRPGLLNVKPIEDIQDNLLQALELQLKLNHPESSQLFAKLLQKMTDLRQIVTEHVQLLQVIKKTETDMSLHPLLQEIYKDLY
Protocol: (§1) To analyze whether PPARγ could bind to a PPRE, classically composed of direct repeats spaced by one intervening nucleotide (DR-1), EMSA was performed using in vitro transcribed/translated PPARγ2 protein. An oligonucleotide containing a high affinity PPRE, previously identified in the apoA-II promoter J site, was used in EMSA (29).
(§2) 7. Electrophoretic Mobility Shift Assays (EMSA) and Oligonucleotide Sequences haPPARγ (39), hPPARγ2, and mRXRα (40) proteins were synthesized in vitro in rabbit reticulocyte lysate (Promega). Molecular weights and quality of the in vitro translated proteins were verified by SDS-PAGE. PPAR (2 μl) and/or RXR (2 μl) were incubated for 15 min on ice in a total volume of 20 μl with 1-ng probe, 2.5 μg of poly(dI-dC) and 1 μg of herring sperm DNA in binding buffer (10 mM Tris-HCl pH 7.9, 40 mMKCl, 10% glycerol, 0.05% Nonidet P-40, and 1 mM dithiothreitol). For competition experiments, increasing amounts (from 10- to 200-fold molar excess) of cold oligonucleotide (AII-J-PPRE, 5'-[…]-3' (41) SEQ ID NO: 24; acyl-CoA oxidase (ACO)-PPRE, 5'-[…]-3' (42) SEQ ID NO: 25; or LPL-PPRE, 5'-[…]-3 (23) SEQ ID NO: 26; were included just before adding T4-PNK end-labeled AII-J-PPRE oligonucleotide. DNA-protein complexes were separated by electrophoresis on a 4% polyacrylamide gel in 0.25×TBE buffer at 4° C. (43).

[1] = target: PPARgamma/RXRalpha heterodimer (hamster haPPARgamma) (hamster / Mus musculus, UniProt P57797;P28700 P57797:1-475,P28700:1-467); experiment: EMSA; pH 7.9, 40 mM KCl, on ice; conditions: tags: rabbit reticulocyte lysate (Promega); label: 32P (T4-PNK)
Protocol: as §1, §2

RXRalpha = target: T1, RXRalpha; experiment: EMSA; homodimer, no PPAR; conditions: tags: rabbit reticulocyte lysate (Promega); label: 32P (T4-PNK)
Protocol: as §1, §2

[2] = target: PPARgamma2/RXRalpha heterodimer (Homo sapiens / Mus musculus, UniProt P37231;P28700 P37231:1-505,P28700:1-467); experiment: EMSA; pH 7.9, 40 mM KCl, on ice; self-competition almost complete; conditions: tags: rabbit reticulocyte lysate (Promega); label: 32P (T4-PNK)
Chain of PPARgamma2/RXRalpha heterodimer (P37231 whole entry, one chain of several): as above
Protocol: as §1, §2

Molecule | PPARγ expression (PPARγ expression) | binding result (PPARgamma2) | binding result [1] | binding result (RXRalpha) | binding result [2]
B1 | stimulate PPARγ expression |  |  |  | 
B2 |  | no binding | binds | no binding | binds
